Reference: patent publication US20230212222A1 (ANYGEN CO., LTD., priority 2020, published 2023)
Square brackets hold non-standard residues; d marks the D form. Ends that are not written are not given here. Peptide text beside a SMILES is read from it. * marks the point of attachment. 1,3‑difluorobenzhydryl = His with a 1-((2,4-difluorophenyl)(phenyl)methyl) group on the imidazole (N1); His(Trt) = N[C@@H](Cc1cn(C(c2ccccc2)(c2ccccc2)c2ccccc2)cn1)C(=O)O; dHis(Trt) = N[C@H](Cc1cn(C(c2ccccc2)(c2ccccc2)c2ccccc2)cn1)C(=O)O; Biotin = O=C1N[C@H]2[C@H](CS[C@H]2CCCCC(=O)*)N1; His(τ-Bzl) = N[C@@H](Cc1cn(Cc2ccccc2)cn1)C(=O)O; 4‑chlorobenzhydryl = Clc1ccc(C(c2ccccc2)*)cc1; Bip = N[C@@H](Cc1ccc(-c2ccccc2)cc1)C(=O)O; dPhe(4-Br) = N[C@H](Cc1ccc(Br)cc1)C(=O)O; dPhe(4-Cl) = N[C@H](Cc1ccc(Cl)cc1)C(=O)O; dPhe(4-Me) = Cc1ccc(C[C@@H](N)C(=O)O)cc1; Trt = c1ccc(C(c2ccccc2)(c2ccccc2)*)cc1; dPhe(4-F) = N[C@H](Cc1ccc(F)cc1)C(=O)O; Dmt = Cc1cc(O)cc(C)c1C[C@H](N)C(=O)O; Benzhydryl = c1ccc(C(c2ccccc2)*)cc1; Palmitoyl = CCCCCCCCCCCCCCCC(=O)*; Myristoyl = CCCCCCCCCCCCCC(=O)*; Lauroyl = CCCCCCCCCCCC(=O)*; Decanoyl = CCCCCCCCCC(=O)*; Octanoyl = CCCCCCCC(=O)*; SO3H = O=S(=O)(O)*; Bn = c1ccc(C*)cc1

B1: HKFY-38 (peptide)
peptide: H(Trt)K(Octanoyl)FYSDQQARF
modifications: not fully specified; printed as His(trt)-Lys(caprylic)-Phe-Tyr-Ser-Asp-Gln-Gln-Ala-Arg-Phe
B2: HKFY-28 (peptide)
peptide: H(Trt)K(Octanoyl)[dPhe(4-F)]Y
B3: HKFY-33 (peptide)
peptide: H(Benzhydryl)K(Octanoyl)FY
B4: HKFY-46 (peptide)
peptide: H(Trt)K(Octanoyl)FW
B5: HKFY-31 (peptide)
peptide: [dH](Trt)K(Octanoyl)[dPhe(4-Me)]Y
B6: HKFY-48 (peptide)
peptide: H(Trt)K(Octanoyl)YY
B7: HKFY-41 (peptide)
peptide: H(Trt)K(Octanoyl)FYQNGARF
B8: HKFY-3 (peptide)
peptide: H(Bn)K(Octanoyl)FY
B9: HKFY-35 (peptide)
peptide: H(Benzhydryl)K(Octanoyl)[dPhe(4-Me)]Y(SO3H)
B10: HKFY-45 (peptide)
peptide: Biotin-H(Trt)K(Octanoyl)[Bip]Y
B11: HKFY-44 (peptide)
peptide: H(Trt)K(Octanoyl)FYW
B12: HKFY-26 (peptide)
peptide: H(Trt)K(Myristoyl)FY
B13: HKFY-23 (peptide)
peptide: H(adamantan‑1‑yl)K(Octanoyl)FY
B14: HKFY-40 (peptide)
peptide: H(Trt)K(Octanoyl)FYSHQQARF
modifications: not fully specified; printed as His(trt)-Lys(caprylic)-Phe-Tyr-Ser-His-Gln-Gln-Ala-Arg-Phe
B15: HKFY-47 (peptide)
peptide: H(Trt)K(Octanoyl)YF
B16: HKFY-29 (peptide)
peptide: H(Trt)K(Octanoyl)[dPhe(4-Br)]Y
B17: HKFY-37 (peptide)
peptide: GSH(Trt)K(Octanoyl)FY
B18: HKFY-27 (peptide)
peptide: H(Trt)K(Palmitoyl)FY
B19: HKFY-21 (peptide)
peptide: H(4‑chlorobenzhydryl)K(Octanoyl)FY
modifications: not fully specified
B20: HKFY-36 (peptide)
peptide: H(Benzhydryl)K(Octanoyl)[dPhe(4-Me)][Dmt]
B21: HKFY-39 (peptide)
peptide: H(Trt)K(Octanoyl)FYSQNGARF
modifications: not fully specified; printed as His(trt)-Lys(caprylic)-Phe-Tyr-Ser-Gln-Asn-Gly-Ala-Arg-Phe
B22: HKFY-49 (peptide)
peptide: His(Trt)-Lys(Octanoyl)-Phe
B23: HKFY-30 (peptide)
peptide: H(Trt)K(Octanoyl)[dPhe(4-Me)]Y
B24: HKFY-22 (peptide)
peptide: H(4‑methylbenzhydryl)K(Octanoyl)FY
B25: HKFY-42 (peptide)
peptide: H(Trt)K(Octanoyl)FYHQQARF
modifications: not fully specified; printed as His(trt)-Lys(caprylic)-Phe-Tyr-His-Gln-Gln-Ala-Arg-Phe
B26: HKFY-24 (peptide)
peptide: H(Trt)K(Decanoyl)FY
B27: HKFY-43 (peptide)
peptide: H(Trt)K(Octanoyl)FYQNQARF
modifications: not fully specified; printed as His(trt)-Lys(caprylic)-Phe-Tyr-Gln-Asn-Gln-Ala-Arg-Phe
B28: HKFY-25 (peptide)
peptide: H(Trt)K(Lauroyl)FY
B29: HKFY-4 (peptide)
peptide: [dH](Trt)K(Octanoyl)FY
B30: HKFY-32 (peptide)
peptide: H(1,3‑difluorobenzhydryl)K(Octanoyl)[dPhe(4-Me)]Y

These molecules were tested against T1, GPR39 (G protein-coupled receptor 39) (Homo sapiens (Human), UniProt O43194 1-453) (assay: cell-based or functional assay).
T1 sequence: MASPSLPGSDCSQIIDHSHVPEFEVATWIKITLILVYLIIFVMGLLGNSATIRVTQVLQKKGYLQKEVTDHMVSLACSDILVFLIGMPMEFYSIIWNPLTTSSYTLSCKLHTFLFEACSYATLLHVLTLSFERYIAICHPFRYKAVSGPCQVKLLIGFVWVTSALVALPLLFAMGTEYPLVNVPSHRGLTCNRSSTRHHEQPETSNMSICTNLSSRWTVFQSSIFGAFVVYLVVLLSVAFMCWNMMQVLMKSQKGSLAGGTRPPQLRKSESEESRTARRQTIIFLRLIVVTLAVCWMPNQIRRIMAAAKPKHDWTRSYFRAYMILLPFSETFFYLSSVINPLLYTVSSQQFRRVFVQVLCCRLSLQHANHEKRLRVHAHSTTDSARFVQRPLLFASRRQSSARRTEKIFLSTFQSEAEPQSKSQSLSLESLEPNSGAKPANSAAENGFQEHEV

Point of comparison: B20, “EC50 (luciferase reporter)” value 0.15 µM. Against it:
- B1 — 23-fold higher, 3.5 µM
- B2 — 2-fold lower, 0.074 µM
- B3 — the same, 0.15 µM
- B4 — 1.7-fold higher, 0.26 µM
- B5 — 7.5-fold lower, 0.02 µM
- B6 — 2.2-fold higher, 0.33 µM
- B7 — 64-fold higher, 9.55 µM
- B8 — 28-fold higher, 4.13 µM
- B9 — 1.9-fold higher, 0.28 µM
- B10 — within 1.5-fold, 0.14 µM
- B11 — 2.5-fold higher, 0.37 µM
- B12 — 1.9-fold higher, 0.28 µM
- B13 — 17-fold higher, 2.6 µM
- B14 — 8.7-fold higher, 1.3 µM
- B15 — 2-fold higher, 0.3 µM
- B16 — 2.1-fold higher, 0.31 µM
- B17 — 12-fold higher, 1.84 µM
- B18 — 3.7-fold higher, 0.56 µM
- B19 — 910-fold higher, 136 µM
- B22 — 2.1-fold higher, 0.32 µM
- B23 — 19-fold lower, 0.008 µM
- B24 — 400-fold higher, 59.8 µM
- B25 — 11-fold higher, 1.58 µM
- B26 — 1.6-fold higher, 0.24 µM
- B27 — 8.1-fold higher, 1.21 µM
- B28 — 4.2-fold higher, 0.63 µM
- B29 — within 1.5-fold, 0.13 µM
- B30 — 75-fold lower, 0.002 µM

Point of comparison: B25, “ECmax (-fold induction over basal)” value 11.8 -fold induction over basal. Against it:
- B1 — higher, 16.5 -fold induction over basal
- B2 — higher, 22.9 -fold induction over basal
- B3 — higher, 20 -fold induction over basal
- B4 — higher, 20 -fold induction over basal
- B5 — higher, 20.9 -fold induction over basal
- B6 — higher, 14.4 -fold induction over basal
- B7 — higher, 12.2 -fold induction over basal
- B8 — lower, 9.2 -fold induction over basal
- B9 — higher, 18.9 -fold induction over basal
- B10 — higher, 21 -fold induction over basal
- B11 — higher, 20 -fold induction over basal
- B12 — higher, 19.8 -fold induction over basal
- B13 — higher, 15 -fold induction over basal
- B14 — higher, 13.4 -fold induction over basal
- B15 — higher, 13 -fold induction over basal
- B16 — higher, 26.8 -fold induction over basal
- B17 — higher, 16 -fold induction over basal
- B18 — higher, 20.4 -fold induction over basal
- B19 — higher, 18.3 -fold induction over basal
- B20 — lower, 9.9 -fold induction over basal
- B21 — higher, 12.1 -fold induction over basal
- B22 — higher, 18.3 -fold induction over basal
- B23 — higher, 23.9 -fold induction over basal
- B24 — higher, 21.3 -fold induction over basal
- B26 — lower, 7.03 -fold induction over basal
- B27 — higher, 12.1 -fold induction over basal
- B28 — lower, 7.72 -fold induction over basal
- B29 — higher, 16.8 -fold induction over basal
- B30 — higher, 21.5 -fold induction over basal

The molecules below were run against T2, GPR39 (Homo sapiens, UniProt O43194) (assay: not given).
T2 sequence (O43194 1-453): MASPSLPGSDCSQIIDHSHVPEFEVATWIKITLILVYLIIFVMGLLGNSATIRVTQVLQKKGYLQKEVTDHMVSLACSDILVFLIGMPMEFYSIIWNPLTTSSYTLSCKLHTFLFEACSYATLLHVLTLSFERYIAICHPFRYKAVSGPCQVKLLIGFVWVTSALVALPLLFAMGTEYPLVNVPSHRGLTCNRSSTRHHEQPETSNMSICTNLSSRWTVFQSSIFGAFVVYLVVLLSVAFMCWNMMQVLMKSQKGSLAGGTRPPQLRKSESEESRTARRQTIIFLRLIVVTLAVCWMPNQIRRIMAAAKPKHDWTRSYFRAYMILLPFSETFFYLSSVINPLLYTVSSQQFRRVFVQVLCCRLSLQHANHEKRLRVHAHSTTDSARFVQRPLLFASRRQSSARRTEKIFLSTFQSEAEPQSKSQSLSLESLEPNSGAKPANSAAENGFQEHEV

With `CCCCCCCC(=O)NCCCC[C@H](NC(=O)[C@@H](N)Cc1cn(Cc2ccccc2)cn1)C(=O)N[C@@H](Cc1ccccc1)C(=O)N[C@@H](Cc1ccc(O)cc1)C(=O)O` [HKFY-3, N2-(Nt-benzyl-L-histidyl)-N6-octanoyl-L-lysyl-L-phenylalanyl-L-tyrosine] (H-[His(τ-Bzl)]K(Octanoyl)FY-OH) the “ECmax (-fold induction over basal)” value was 9.2 ± 2.58 -fold induction over basal.
With `CCCCCCCC(=O)NCCCC[C@H](NC(=O)[C@H](N)Cc1cn(C(c2ccccc2)(c2ccccc2)c2ccccc2)cn1)C(=O)N[C@@H](Cc1ccccc1)C(=O)N[C@@H](Cc1ccc(O)cc1)C(=O)O` [HKFY-4, N6-octanoyl-N2-(Nt-trityl-D-histidyl)-L-lysyl-L-phenylalanyl-L-tyrosine] (H-[dHis(Trt)]K(Octanoyl)FY-OH) the “ECmax (-fold induction over basal)” value was 16.8 ± 1.87 -fold induction over basal.
With `CCCCCCCC(=O)NCCCC[C@H](NC(=O)[C@@H](N)Cc1cn(CCc2ccccc2)cn1)C(=O)N[C@@H](Cc1ccccc1)C(=O)N[C@@H](Cc1ccc(O)cc1)C(=O)O` [HKFY-9, N6-octanoyl-N2-(Nt-phenethyl-L-histidyl)-L-lysyl-L-phenylalanyl-L-tyrosine] the “ECmax (-fold induction over basal)” value was 21 ± 2.52 -fold induction over basal.
With `CCCCCCCC(=O)NCCCC[C@H](NC(=O)[C@@H](N)Cc1cn(Cc2cccc3ccccc23)cn1)C(=O)N[C@@H](Cc1ccccc1)C(=O)N[C@@H](Cc1ccc(O)cc1)C(=O)O` [HKFY-10, N2-(Nt-(naphthalen-1-ylmethyl)-L-histidyl)-N6-octanoyl-L-lysyl-L-phenylalanyl-L-tyrosine] the “ECmax (-fold induction over basal)” value was 14 ± 2.12 -fold induction over basal.
`CCCCCCCC(=O)NCCCC[C@H](NC(=O)[C@@H](N)Cc1cn(CCC2CCCCC2)cn1)C(=O)N[C@@H](Cc1ccccc1)C(=O)N[C@@H](Cc1ccc(O)cc1)C(=O)O` [HKFY-11, N2-(Nt-(2-cyclohexylethyl)-L-histidyl)-N6-octanoyl-L-lysyl-L-phenylalanyl-L-tyrosine] was tested, and the “ECmax (-fold induction over basal)” value was 22 ± 2.2 -fold induction over basal.
With `CCCCCCCC(=O)NCCCC[C@H](NC(=O)[C@@H](N)Cc1cn(C(c2ccccc2)(c2ccccc2)c2ccccc2)cn1)C(=O)N[C@H](Cc1ccc(Cl)cc1)C(=O)N[C@H](Cc1ccc(O)cc1)C(=O)O` [HKFY-15, ((R)-2-((S)-2-((S)-2-amino-3-(1-trityl-1H-imidazol-4-yl)propanamido)-6-octanamidohexanamido)-3-(4-chlorophenyl)propanoyl)-D-tyrosine] (H-[His(Trt)]K(Octanoyl)[dPhe(4-Cl)][dY]-OH) the “ECmax (-fold induction over basal)” value was 24.7 ± 2.6 -fold induction over basal.
